Source: publication PMC8776733, “In vivo spatiotemporal control of voltage-gated ion channels by using photoactivatable peptidic toxins” (Nature Communications, 2022)
Ends that are not written are not given here. * marks the point of attachment. Nvoc = Nvoc photocleavable protecting (caging) group on the Lys side chain, COc1cc(COC(=O)*)c([N+](=O)[O-])cc1OC

Legend:
Assay type in all cases: cell-based
hKV1.2 = target: T1, hKV1.2 (Homo sapiens, UniProt P16389); assay: Photocontrol of KV1.2 current, automated patch-clamp; conditions: 100 nM; 365 nm, 45 mW/cm^2, 250 s
T1 construct: expressed in transfected cells; host or cells: CHO (transient)
T1 sequence (P16389 whole entry): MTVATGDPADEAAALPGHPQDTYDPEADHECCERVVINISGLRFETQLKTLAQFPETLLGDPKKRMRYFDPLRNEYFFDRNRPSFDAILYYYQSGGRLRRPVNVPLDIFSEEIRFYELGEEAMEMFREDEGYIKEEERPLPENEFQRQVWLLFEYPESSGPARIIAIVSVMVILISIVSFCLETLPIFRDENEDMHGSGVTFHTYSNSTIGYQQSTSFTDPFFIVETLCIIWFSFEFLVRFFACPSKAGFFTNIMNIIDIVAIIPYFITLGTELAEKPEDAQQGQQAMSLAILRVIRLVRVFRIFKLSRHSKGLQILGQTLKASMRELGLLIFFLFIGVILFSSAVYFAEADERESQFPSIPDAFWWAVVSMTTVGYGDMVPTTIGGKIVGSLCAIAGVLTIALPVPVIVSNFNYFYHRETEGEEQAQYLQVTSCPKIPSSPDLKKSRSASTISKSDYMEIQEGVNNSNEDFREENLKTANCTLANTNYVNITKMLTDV
Procedure: (§1) HEK293 cells stably expressing the hNaV1.1 (XM_011511604), hNaV1.2 (XM_017004655) or hNaV1.6 (XM_011538651) channels, CHO cells transiently expressing hKV1.2 (NG_027997.2) and CHO cells stably expressing hNaV1.7 (XM_011511618) or the hERG (NM_000238) channels were cultured in Dulbecco’s Modified Eagle’s Medium (DMEM) supplemented with 10% fetal bovine serum, 1 mM pyruvic acid, 4.5 g/L glucose, 4 mM glutamine, 800 µg/mL G418, 10 U/mL penicillin and 10 μg/mL streptomycin (Gibco, Grand Island, NY). All cell lines were incubated at 37 °C in a 5% CO2 atmosphere. For electrophysiological recordings, cells were detached with trypsin and floating single cells were diluted (~300,000 cells/mL) in medium contained (in mM): […], 4 KCl, 2 CaCl2, 1 MgCl2, 5 glucose, and 10 HEPES (pH 7.4, osmolarity 298 mOsm).
(§2) Automated patch-clamp recordings were performed using the SyncroPatch 384PE from Nanion (München, Germany). […] Current inhibition percentages were measured at equilibrium after 14 min peptide application time. […]
(§3) The pharmacology of HwTxIV-Nvoc, as well as the efficiency of the released product to block hNaV channels was studied using combined automated patch-clamp and UV illumination. After 2 min of control, HwTxIV-Nvoc was added to the external buffer and effects were recorded for 100 s prior to a 250 s-duration illumination for photocleavage induction of the caged compound. […]

hERG = target: T2, hERG (Homo sapiens, UniProt Q12809); assay: Photocontrol of hERG current, automated patch-clamp; conditions: 100 nM; 365 nm, 45 mW/cm^2, 250 s
T2 construct: expressed in transfected cells
T2 sequence (Q12809 whole entry): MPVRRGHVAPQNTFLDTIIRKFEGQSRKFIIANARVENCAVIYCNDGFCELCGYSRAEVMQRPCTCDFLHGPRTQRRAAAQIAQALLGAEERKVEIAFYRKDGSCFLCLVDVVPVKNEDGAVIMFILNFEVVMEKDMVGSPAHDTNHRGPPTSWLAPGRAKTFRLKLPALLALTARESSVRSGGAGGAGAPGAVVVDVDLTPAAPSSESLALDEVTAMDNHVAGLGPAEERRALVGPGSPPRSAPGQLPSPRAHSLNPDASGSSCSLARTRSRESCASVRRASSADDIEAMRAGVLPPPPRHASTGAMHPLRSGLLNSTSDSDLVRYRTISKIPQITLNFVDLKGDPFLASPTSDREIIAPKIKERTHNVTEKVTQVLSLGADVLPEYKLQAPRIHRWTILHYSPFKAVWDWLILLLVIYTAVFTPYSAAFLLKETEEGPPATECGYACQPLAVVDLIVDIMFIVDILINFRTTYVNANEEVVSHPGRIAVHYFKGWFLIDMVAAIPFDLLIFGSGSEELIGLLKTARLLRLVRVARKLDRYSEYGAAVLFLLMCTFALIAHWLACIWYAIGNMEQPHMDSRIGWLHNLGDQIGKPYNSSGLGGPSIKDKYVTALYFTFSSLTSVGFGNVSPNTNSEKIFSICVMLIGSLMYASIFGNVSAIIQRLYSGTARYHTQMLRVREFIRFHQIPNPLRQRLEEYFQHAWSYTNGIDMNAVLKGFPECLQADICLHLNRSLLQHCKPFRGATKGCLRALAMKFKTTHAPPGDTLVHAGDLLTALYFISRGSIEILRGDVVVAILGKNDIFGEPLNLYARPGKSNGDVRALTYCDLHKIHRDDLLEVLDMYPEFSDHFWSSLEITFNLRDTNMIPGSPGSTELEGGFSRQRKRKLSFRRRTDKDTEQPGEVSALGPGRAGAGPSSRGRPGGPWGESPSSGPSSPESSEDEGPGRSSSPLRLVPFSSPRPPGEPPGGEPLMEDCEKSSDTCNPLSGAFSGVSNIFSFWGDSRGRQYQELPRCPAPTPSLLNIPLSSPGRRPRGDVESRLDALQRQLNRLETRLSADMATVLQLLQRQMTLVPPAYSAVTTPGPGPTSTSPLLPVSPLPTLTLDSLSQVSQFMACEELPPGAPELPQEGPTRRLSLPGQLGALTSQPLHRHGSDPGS
Procedure: as §1, §2, §3

hNaV1.6 = target: T3, hNaV1.6 (Homo sapiens, UniProt Q9UQD0); assay: Photoactivation by UV illumination combined with automated patch-clamp; conditions: 100 nM, illumination 4 min, 365 nm, 45 mW/cm2; n = 14
T3 construct: expressed in transfected cells
T3 sequence (Q9UQD0 whole entry): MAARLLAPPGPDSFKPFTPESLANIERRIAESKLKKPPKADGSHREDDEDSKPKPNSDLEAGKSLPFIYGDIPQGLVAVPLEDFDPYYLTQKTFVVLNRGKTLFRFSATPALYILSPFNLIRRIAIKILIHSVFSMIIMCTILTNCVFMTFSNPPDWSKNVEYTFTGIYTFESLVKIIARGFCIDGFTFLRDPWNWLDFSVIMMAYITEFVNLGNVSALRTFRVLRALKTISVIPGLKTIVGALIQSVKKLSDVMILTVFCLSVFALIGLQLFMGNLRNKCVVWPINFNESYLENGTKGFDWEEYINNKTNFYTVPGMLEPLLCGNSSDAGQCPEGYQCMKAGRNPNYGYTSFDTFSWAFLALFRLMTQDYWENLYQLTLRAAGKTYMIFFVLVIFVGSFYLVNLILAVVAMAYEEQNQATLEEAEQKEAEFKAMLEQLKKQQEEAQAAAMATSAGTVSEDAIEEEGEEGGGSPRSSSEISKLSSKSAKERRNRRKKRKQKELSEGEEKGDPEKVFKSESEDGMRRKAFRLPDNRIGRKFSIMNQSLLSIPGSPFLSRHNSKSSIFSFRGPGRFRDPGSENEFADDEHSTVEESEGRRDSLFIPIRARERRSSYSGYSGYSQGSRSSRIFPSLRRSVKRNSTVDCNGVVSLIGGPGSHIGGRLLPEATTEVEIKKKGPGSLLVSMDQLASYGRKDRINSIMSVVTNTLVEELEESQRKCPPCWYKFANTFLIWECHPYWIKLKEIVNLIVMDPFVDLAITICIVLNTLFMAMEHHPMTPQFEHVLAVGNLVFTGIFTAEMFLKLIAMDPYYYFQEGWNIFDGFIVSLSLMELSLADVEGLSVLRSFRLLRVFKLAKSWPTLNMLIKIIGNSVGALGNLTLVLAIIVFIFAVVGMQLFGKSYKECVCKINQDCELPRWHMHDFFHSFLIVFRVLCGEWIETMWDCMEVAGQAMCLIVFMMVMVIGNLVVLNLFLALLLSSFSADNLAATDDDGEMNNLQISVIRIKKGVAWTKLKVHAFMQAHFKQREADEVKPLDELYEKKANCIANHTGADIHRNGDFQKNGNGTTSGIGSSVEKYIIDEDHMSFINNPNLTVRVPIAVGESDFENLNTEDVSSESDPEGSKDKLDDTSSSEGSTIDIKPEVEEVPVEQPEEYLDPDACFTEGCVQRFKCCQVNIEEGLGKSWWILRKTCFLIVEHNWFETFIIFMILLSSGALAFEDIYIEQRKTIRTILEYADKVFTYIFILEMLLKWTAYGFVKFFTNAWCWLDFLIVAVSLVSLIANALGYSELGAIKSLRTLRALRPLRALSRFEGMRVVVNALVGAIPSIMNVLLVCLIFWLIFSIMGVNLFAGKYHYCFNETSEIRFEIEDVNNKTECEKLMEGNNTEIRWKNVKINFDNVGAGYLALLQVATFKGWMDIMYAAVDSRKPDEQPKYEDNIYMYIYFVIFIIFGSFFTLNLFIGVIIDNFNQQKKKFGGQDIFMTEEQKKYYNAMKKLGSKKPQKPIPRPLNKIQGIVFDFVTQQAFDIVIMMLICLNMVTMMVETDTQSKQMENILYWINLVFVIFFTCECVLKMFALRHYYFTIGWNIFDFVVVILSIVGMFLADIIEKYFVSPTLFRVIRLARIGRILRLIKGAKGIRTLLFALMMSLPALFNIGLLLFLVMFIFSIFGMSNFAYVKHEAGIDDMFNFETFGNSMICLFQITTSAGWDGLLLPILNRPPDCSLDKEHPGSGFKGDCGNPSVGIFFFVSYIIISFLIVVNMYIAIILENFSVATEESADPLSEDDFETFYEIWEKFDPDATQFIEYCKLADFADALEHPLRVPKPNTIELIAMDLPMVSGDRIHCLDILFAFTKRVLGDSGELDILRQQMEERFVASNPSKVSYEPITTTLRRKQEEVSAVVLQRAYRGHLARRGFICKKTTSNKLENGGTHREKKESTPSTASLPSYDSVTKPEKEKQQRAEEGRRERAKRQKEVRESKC
Procedure: as §1, §2, §3

Substance | UV-dependent effect on KV1.2 current (hKV1.2) | UV-dependent effect on hERG current (hERG) | effect of Nvoc photolysis by-product on hNaV1.6 (hNaV1.6)
charybdotoxin-Nvoc | block | – | –
BeKm1-Nvoc: BeKm1 (hERG blocker) caged with a Nvoc protecting group on K^18 (RPTDIKCSESYQCFPVCK(Nvoc)SRFGKTNGRCVNGFCDCF; ends and bridges not checked; UniProt Q9BKB7 22-57, looked up) | – | block | inert
